Test results: article PMC5050560

Tests used:
[1] = biological target: cdPadR1 (PadR family transcription regulator, product of CDR20291_0991, Clostridium difficile R20291) (Clostridium difficile R20291); assay: SEC
[2] = biological target: cdPadR1 (PadR family transcription regulator, product of CDR20291_0991, Clostridium difficile R20291) (Clostridium difficile R20291); assay: SEC-MALS
[3] = biological target: cdPadR1^W94A (Clostridium difficile R20291); assay: SEC-MALS

| Substance | stoichiometry N [1] | stoichiometry N [2] | stoichiometry N [3] |
| --- | --- | --- | --- |
| cdPadR1 (PadR family transcription regulator, product of CDR20291_0991, Clostridium difficile R20291) (from UniProt A0A9R0CDW8 1-109) (natural protein) | 2 | 2 | – |
| cdPadR1^W94A (from UniProt A0A9R0CDW8 1-109) (natural protein) | – | – | 2 |
